# Assays:
# [1] = tested on: R-loops from NIH/3T3 cell lysate; experiment: S9.6 antibody IP, co-precipitation of LSD1 and DDX19A; type: cell-based, murine; details: NIH/3T3 whole cell lysate, Western blot
# Method: 100 μl Dynabeads® Protein G were pre-blocked with 0.5% BSA/PBS for 2 h at 4°C. 10 × 10^6 non-crosslinked NIH/3T3 cells were harvested, washed once in 1× PBS and lysed in 1 ml Cell Lysis Buffer (85 mM KCl, 5 mM HEPES pH 8, 0.5% NP-40, cOmplete™ EDTA-free PIC) for 15 min on ice. Nuclei were collected by spinning 1 min at 15 000 × g, 4°C. The pellet was resuspended in 750 μl RSB buffer (10 mM Tris–HCl pH 7.5, 200 mM NaCl, 2.5 mM MgCl2, cOmplete™ EDTA-free PIC) supplemented with 0.2% sodium-deoxycholate, 0.1% SDS, 0.05% sodium-lauroyl-sarcosinate and 0.5% Triton X-100. Cells were sonicated for 4 min in an EpiShear Probe Sonicator (20 s pulse, 30 s pause, 40%). After taking 5% as input, samples were transferred to a 15 ml falcon tube and diluted 1:4 by addition of 2.3 ml RSB with 0.5% Triton X-100 (RSB+T). The samples were subjected to pre-clearing with 5 μg mouse IgG and 35 μl Dynabeads® Protein G for 1 h at 4°C. Magnetic beads were locked and the supernatant was split into three Eppendorf tubes. For the S9.6 antibody-specificity control, 40 U of RNAse H (NEB) were added to one of the tubes and all samples were incubated for 10 min at 37°C before adding the IP antibodies. The samples were subjected to IP with 4 μg of either the S9.6 antibody or mouse IgG and 32 μl pre-blocked beads per sample. 10 ng RNase A was added to each tube before rotating at 4°C for 2.5 h. […]
# [2] = tested on: RNA:DNA hybrid; experiment: RNA:DNA unwinding assay; type: biochemical; details: 4.79 μM recombinant DDX19A, 1 nM Cy-5-labeled RNA:DNA hybrid, 4 mM ATP, 30°C, 60 min, pH 7.5
# Method: RNA:DNA unwinding assay was performed as described ([54]). In brief: RNA:DNA hybrids were annealed in vitro in 5 mM Tris/HCl pH 8.5. The sequence of the top RNA strand was: 5′‐[…]‐3′, and the sequence of the bottom DNA strand was 5′-[…]‐3′. The annealed RNA:DNA hybrid has a 5′ ssDNA overhang and is labeled with Cy-5. Unwinding experiments were carried out at 30°C for 60 min in 30 mM Tris–HCl (pH 7.5), 50 mM NaCl, 5 mM MgCl2, 2 mM DTT, 0.01% NP‐40, 0.1 mg/ml BSA, 4 mM ATP, 1 nM Cy-5‐labeled RNA:DNA hybrid substrate, in the presence of 4.79 μM recombinant DDX19A. The reaction was stopped by the addition of SDS to a final concentration of 0.5% and 20 ng proteinase K (20 mg/ml). The reaction was afterward loaded onto a 10% non-denaturing polyacrylamide gel and analysed using a FusionFX detection system (VILBER).
molecule,measurement,setting,value
"DDX19A: DEAD-box helicase 19A; recombinant GST-tagged for in vitro tests, endogenous in S9.6 IP (protein, UniProt Q9NUU7 2-478, looked up, GST tag, DEAD-box helicase 19A; recombinant GST-tagged for in vitro tests, endogenous in S9.6 IP) ATP-dependent RNA helicase …: ATDSWALAVDEQEAAVKSMTNLQIKEEKVKADTNGIIKTSTTAEKTDEEEKEDRAAQSLLNKLIRSNLVDNTNQVEVLQRDPNSPLYSVKSFEELRLKPQLLQGVYAMGFNRPSKIQENALPMMLAEPPQNLIAQSQSGTGKTAAFVLAMLSRVEPSDRYPQCLCLSPTYELALQTGKVIEQMGKFYPELKLAYAVRGNKLERGQKISEQIVIGTPGTVLDWCSKLKFIDPKKIKVFVLDEADVMIATQGHQDQSIRIQRMLPRNCQMLLFSATFEDSVWKFAQKVVPDPNVIKLKREEETLDTIKQYYVLCSSRDEKFQALCNLYGAITIAQAMIFCHTRKTASWLAAELSKEGHQVALLSGEMMVEQRAAVIERFREGKEKVLVTTNVCARGIDVEQVSVVINFDLPVDKDGNPDNETYLHRIGRTGRFGKRGLAVNMVDSKHSMNILNRIQEHFNKKIERLDTDDLDEIEKIAN",association with R-loops (co-precipitation with S9.6),[1],strong physical association
same,ability to resolve RNA:DNA hybrids in vitro,[2],confirmed its ability to resolve RNA:DNA hybrids in vitro
